In the supplement of paper PMC10567573:

B1: FAM107A (parent)
chain: LQRVLEHRRRNQLIKKKKEELEAK
B2: SERPINB5 (parent)
chain: FPESETKECPFRVNKVCGAACSSK

Variants of: B1
Test: protein stability index of a GFP-peptide fusion (GPS, HEK-293T) (PSI 1-6); higher = more stable
Settings: c terminus: a fixed tail appended
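Further: lentivirally expressed fusions sorted by FACS into six bins by GFP to DsRed ratio, PSI derived from sequencing read proportions per bin multiplied by bin number.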

Row | Variant | protein stability index
1 | E20H | 2.83
2 | E20P | 3.74
3 | E22V | 2.88
4 | E22M | 2.83
5 | E22A | 3.44
6 | K18L | 2.81
7 | K18V | 3.21
8 | K18Q | 3.04
9 | K18P | 4.37
10 | K18N | 3.41
11 | K18E | 3.89
12 | K18D | 4.4
13 | K15D | 3.61
14 | K15I | 3.24
15 | K15E | 4.74
16 | L21W | 3.18
17 | L21A | 3.88
18 | L21Y | 2.46
19 | L21S | 3.92
20 | L21D | 4.01
21 | R9K | 3.76
22 | R9F | 2.49

Row | Variant | protein stability index
23 | R9Y | 1.84
24 | R9E | 3.97
25 | R9I | 2.72
26 | R9P | 3.81
27 | R9C | 3.23
28 | A23I | 2.75
29 | A23N | 3.56
30 | A23M | 3.39
31 | A23R | 3.48
32 | A23S | 3.63
33 | A23Y | 3.48
34 | K24Y | 2.62
35 | K24R | 2.61
36 | K24P | 3.44
37 | K24S | 3.97
38 | K24H | 3.33
39 | K24N | 3.77
40 | K24G | 3.63
41 | H7L | 3.34
42 | Q2R | 3.67
43 | Q2N | 4.13
44 | Q2Y | 2.13

Row | Variant | protein stability index
45 | L1P | 4.66
46 | L1Y | 3.02
47 | L1W | 2.56
48 | L5S | 4.46
49 | L5R | 4.04
50 | L5H | 5.17
51 | L5N | 4.27
52 | V4L | 2.87
53 | V4W | 2.09
54 | V4G | 3.52
55 | V4T | 3.92
56 | V4M | 3.1
57 | V4R | 4.14
58 | K17T | 4.38
59 | K17F | 3.73
60 | K17A | 3.44
61 | K17V | 3.25
62 | K16A | 4.15
63 | K16S | 4
64 | L13D | 3.29
65 | Q12P | 4.12
66 | Q12L | 2.2

Row | Variant | protein stability index
67 | I14T | 3.71
68 | R8W | 1.68
69 | R8E | 4.32
70 | R8Q | 3.38
71 | E19M | 3.19
72 | E19Y | 3.23
73 | E19P | 3.41
74 | E19R | 2.56
75 | E6C | 3.12
76 | E6K | 4.04
77 | E6Y | 3
78 | E6T | 3.02
79 | E6L | 2.79
80 | E6S | 4.13
81 | R10H | 3.2
82 | R10F | 3.21
83 | R10A | 4.01
84 | R10M | 2.85
85 | R3I | 2.09

Variants of: B2
Test: as above
Settings: c terminus: a fixed tail appended

Row | Variant | protein stability index
86 | F1R | 4.65
87 | F1V | 4.5
88 | F1Q | 4.5
89 | F1E | 5.05
90 | F1N | 4.61
91 | F1S | 5.08
92 | F1D | 5.41
93 | F1A | 4.46
94 | F1C | 4.63
95 | F1H | 4.54
96 | F1P | 4.52
97 | F1K | 4.89
98 | F1L | 4.93
99 | F1I | 4.67
100 | F1M | 4.85
101 | F1G | 4.7
102 | F1T | 2.73
103 | F1W | 3.85
104 | F1Y | 3.41
105 | N14E | 3.29
106 | N14A | 2.2

Row | Variant | protein stability index
107 | N14C | 2.69
108 | N14D | 3.17
109 | E3T | 1.43
110 | E3W | 2.29
111 | E3Q | 1.75
112 | E3L | 1.43
113 | E3C | 2.4
114 | E3F | 1.75
115 | E3I | 1.86
116 | E3S | 1.47
117 | E3R | 1.71
118 | E3Y | 1.53
119 | E3A | 1.42
120 | E3K | 2.09
121 | E3N | 2.4
122 | E3P | 2.15
123 | E3H | 1.55
124 | E3M | 1.45
125 | E3V | 1.99
126 | E3D | 2.42
127 | E3G | 1.88

Row | Variant | protein stability index
128 | F11Y | 2.99
129 | F11G | 2.87
130 | F11D | 5.06
131 | F11P | 4.96
132 | F11S | 5.28
133 | F11K | 5.11
134 | F11Q | 5.04
135 | F11C | 3.71
136 | F11L | 4.31
137 | F11M | 4.48
138 | F11A | 4.43
139 | F11I | 4.74
140 | F11H | 5.17
141 | F11T | 4.45
142 | F11N | 5.12
143 | F11W | 2.16
144 | F11R | 4.67
145 | F11E | 4.43
146 | F11V | 4.25
147 | T6S | 2.36
148 | T6Y | 2.28

Row | Variant | protein stability index
149 | T6R | 2.63
150 | T6G | 2.09
151 | T6L | 2.1
152 | T6I | 2.82
153 | T6A | 2.68
154 | T6K | 2.28
155 | T6F | 2.23
156 | T6C | 2.38
157 | T6P | 2.91
158 | T6V | 3.18
159 | T6W | 2.65
160 | T6E | 3.47
161 | T6Q | 2.95
162 | T6N | 2.2
163 | T6D | 2.47
164 | T6M | 2.63
165 | T6H | 2.56
166 | K7Y | 1.97
167 | K7N | 3.05
